Residue numbers refer to the chain shown, from its start. Values joined by “and” are separate entries in the source; they are usually repeats but may differ in a detail not shown here. Equal values may be shown once.
B1: c-Met IgG antibody 11978 (antibody, V domains shown)
VH: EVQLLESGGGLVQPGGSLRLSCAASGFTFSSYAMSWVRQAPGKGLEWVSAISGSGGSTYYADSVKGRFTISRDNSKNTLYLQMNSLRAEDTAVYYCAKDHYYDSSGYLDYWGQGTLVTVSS
VL: NFMLTQPHSVSESPGKTVTISCTRSSGSIAFDYVQWYQQRPGSAPTTVIYEDNQRPSGVPDRFSASIDSSSNSASLTISALKTEDEADYYCQSYDNSNSWVFGGGTKLTVLG
notes: IgG of scFv PGIA-1-A8; also called IgG of scFv PGIA-01-A8 (PGIA-1-A8)
B2: NK4-6His (recombinant NK4, CHO DG44/pPHA27965) (ligand)
chain: QRKRRNTIHEFKKSAKTTLIKIDPALKIKTKKVNTADQCANRCTRNKGLPFTCKAFVFDKARKQCLWFPFNSMSSGVKKEFGHEFDLYENKDYIRNCIIGKGRSYKGTVSITKSGIKCQPWSSMIPHEHSFLPSSYRGKDLQENYCRNPRGEEGGPWCFTSNPEVRYEVCDIPQCSEVECMTCNGESYRGLMDHTESGKICQRWDHQTPHRHKFLPERYPDKGFDDNYCRNPDGQPRPWCYTLDPHTRWEYCAIKTCADNTMNDTDVPLETTECIQGQGEGYRGTVNTIWNGIPCQRWDSQYPHEHDMTPENFKCKDLRENYCRNPDGSESPWCFTTDPNIRVGYCSQIPNCDMSHGQDCYRGNGKNYMGNLSQTRSGLTCSMWDKNMEDLHRHIFWEPDASKLNENYCRNPDDDAHGPWCYTGNPLIPWDYCPISRCEGDTTPTIVHHHHHH
notes: domain: NK4; also called NK4-His
B3: c-Met IgG antibody 12075 (antibody, V domains shown)
VH: QVQLVQSGPEVKKPGASVEVSCKASGYTFTGDYMHWVRQAPGQGPEWMGWINPQTGVTKYAQKFQGRVTMARDTSINTAYMELRGLRSDDTAVYYCVREDHNYDLWSAYNGLDVWGQGTLVTVSS
VL: QSVLTQPPSVSAAPGQKVTISCSGSSSNIGNNHVSWYQQLAGTAPKLLIFDNDKRPSGIPDRFSGSKSGTSATLGITGLQTGDEADYYCGTWDKSPTDIYVFGSGTKLTVLG
notes: IgG of scFv PGIA-3-A11; also called 12075 IgG; IgG of scFv PGIA-03-A11 (PGIA-3-A11)
B4: c-Met IgG antibody 12119 (antibody, V domains shown)
VH: QLQLQESGPGLVKPSGTLSLTCAVSGGSISTSDWWSWVRRPPGKGLEWIGEIYHSGSTNYHPSLKSRVTISLDKSKNQFSLKLSSVTAADTAVYYCAREGGHSGSYPLDYWGRGTLVTVSS
VL: NFMLTQPHSVSESPGKTVTISCARSSGSIASNYVQWYQQRPGSSPTTLIYEDRQRPSGVPDRFSGSIDSSSNSASLTISGLKTEDEADYYCQSYDSSDHVVFGGGTKLTVLG
notes: IgG of scFv PGIA-5-A1; also called 12119 IgG; IgG of scFv PGIA-05-A1 (PGIA-5-A1)
B5: c-Met IgG antibody 11994 (antibody, V domains shown)
VH: B4 VH with L2V, R113K
VL: NFMLTQPHSVSESPGKTVTISCTRSSGSIASNYVQWYQQRPGSSPTTVIYEDNQRPSGVPDRFSGSIDSSSNSASLTISGLKTEDEADYYCQSYDSSNQGVVFGGGTKLTVLG
notes: IgG of scFv PGIA-3-A9; also called 11994 IgG; 11994-50
B6: c-Met 11994 Fab (Fab, V domains shown)
VH: B4 VH with L2V, R113K
VL: B5 VL
notes: VH and VL limits counted as for the IgG; also called 11994-50; Fab fragment derived from c-Met antibody 11994
B7: NK4-Elastase (ligand, UniProt P14210 32-478, looked up)
chain: QRKRRNTIHEFKKSAKTTLIKIDPALKIKTKKVNTADQCANRCTRNKGLPFTCKAFVFDKARKQCLWFPFNSMSSGVKKEFGHEFDLYENKDYIRNCIIGKGRSYKGTVSITKSGIKCQPWSSMIPHEHSFLPSSYRGKDLQENYCRNPRGEEGGPWCFTSNPEVRYEVCDIPQCSEVECMTCNGESYRGLMDHTESGKICQRWDHQTPHRHKFLPERYPDKGFDDNYCRNPDGQPRPWCYTLDPHTRWEYCAIKTCADNTMNDTDVPLETTECIQGQGEGYRGTVNTIWNGIPCQRWDSQYPHEHDMTPENFKCKDLRENYCRNPDGSESPWCFTTDPNIRVGYCSQIPNCDMSHGQDCYRGNGKNYMGNLSQTRSGLTCSMWDKNMEDLHRHIFWEPDASKLNENYCRNPDDDAHGPWCYTGNPLIPWDYCPISRCEGDTTPTIV
notes: domain: kringle to kringle 4 fragment

Tests used:
[1] = target: c-Met (endogenous, on human cell lines 184B5, HCT-116, DU-145 and NCI H441) (human, UniProt P08581 25-1390); test: cell-based or functional assay
Sequence of c-Met (endogenous, on human cell lines 184B5, HCT-116, DU-145 and NCI H441) (P08581 25-1390): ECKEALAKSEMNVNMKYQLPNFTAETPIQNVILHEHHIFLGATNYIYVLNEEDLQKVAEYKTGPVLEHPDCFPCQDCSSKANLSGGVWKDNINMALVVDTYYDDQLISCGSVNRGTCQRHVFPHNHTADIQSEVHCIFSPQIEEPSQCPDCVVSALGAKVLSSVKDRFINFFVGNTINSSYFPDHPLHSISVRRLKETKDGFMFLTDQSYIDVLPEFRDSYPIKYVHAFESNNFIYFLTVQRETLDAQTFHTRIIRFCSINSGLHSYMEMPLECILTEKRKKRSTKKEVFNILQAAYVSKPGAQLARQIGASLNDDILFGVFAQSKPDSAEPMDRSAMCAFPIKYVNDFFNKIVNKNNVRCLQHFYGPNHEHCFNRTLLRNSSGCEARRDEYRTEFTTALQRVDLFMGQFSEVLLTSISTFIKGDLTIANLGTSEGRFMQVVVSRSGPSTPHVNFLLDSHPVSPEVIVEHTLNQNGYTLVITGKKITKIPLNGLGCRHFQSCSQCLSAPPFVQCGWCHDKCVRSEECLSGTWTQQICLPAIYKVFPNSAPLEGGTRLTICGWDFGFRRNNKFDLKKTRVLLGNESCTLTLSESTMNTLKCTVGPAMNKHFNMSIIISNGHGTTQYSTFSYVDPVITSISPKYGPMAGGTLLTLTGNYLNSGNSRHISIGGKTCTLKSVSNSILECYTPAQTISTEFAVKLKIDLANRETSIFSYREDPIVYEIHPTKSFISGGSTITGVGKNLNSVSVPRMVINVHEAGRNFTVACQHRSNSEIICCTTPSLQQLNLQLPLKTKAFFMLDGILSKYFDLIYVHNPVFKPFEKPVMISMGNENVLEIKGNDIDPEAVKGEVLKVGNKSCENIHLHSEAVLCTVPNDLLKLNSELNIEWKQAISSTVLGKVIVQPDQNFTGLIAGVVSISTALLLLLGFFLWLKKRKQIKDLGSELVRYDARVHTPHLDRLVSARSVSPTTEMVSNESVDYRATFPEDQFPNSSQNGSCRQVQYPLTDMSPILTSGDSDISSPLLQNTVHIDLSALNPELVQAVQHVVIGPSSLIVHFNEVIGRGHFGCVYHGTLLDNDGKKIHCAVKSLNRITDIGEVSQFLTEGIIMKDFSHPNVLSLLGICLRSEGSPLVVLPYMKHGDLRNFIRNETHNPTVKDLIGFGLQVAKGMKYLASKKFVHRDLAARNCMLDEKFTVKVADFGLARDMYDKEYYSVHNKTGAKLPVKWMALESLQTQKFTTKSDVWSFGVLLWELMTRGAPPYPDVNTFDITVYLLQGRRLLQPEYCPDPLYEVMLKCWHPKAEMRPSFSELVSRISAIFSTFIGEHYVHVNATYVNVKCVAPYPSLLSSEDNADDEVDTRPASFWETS

[2] = target: T1, c-Met/Fc Chimera (R&D Systems, catalog # 358-MT-100) (human, UniProt P08581 25-932); test: competition ELISA: displacement of biotinylated HGF from plate-coated c-Met/Fc chimera, IgG, n = 2
T1 construct: extracellular domain; Bought reagent; also called human c-Met-Fc fusion protein; recombinant c-Met protein; Fc part of the bought chimera not given
T1 sequence (P08581 25-932, change not shown): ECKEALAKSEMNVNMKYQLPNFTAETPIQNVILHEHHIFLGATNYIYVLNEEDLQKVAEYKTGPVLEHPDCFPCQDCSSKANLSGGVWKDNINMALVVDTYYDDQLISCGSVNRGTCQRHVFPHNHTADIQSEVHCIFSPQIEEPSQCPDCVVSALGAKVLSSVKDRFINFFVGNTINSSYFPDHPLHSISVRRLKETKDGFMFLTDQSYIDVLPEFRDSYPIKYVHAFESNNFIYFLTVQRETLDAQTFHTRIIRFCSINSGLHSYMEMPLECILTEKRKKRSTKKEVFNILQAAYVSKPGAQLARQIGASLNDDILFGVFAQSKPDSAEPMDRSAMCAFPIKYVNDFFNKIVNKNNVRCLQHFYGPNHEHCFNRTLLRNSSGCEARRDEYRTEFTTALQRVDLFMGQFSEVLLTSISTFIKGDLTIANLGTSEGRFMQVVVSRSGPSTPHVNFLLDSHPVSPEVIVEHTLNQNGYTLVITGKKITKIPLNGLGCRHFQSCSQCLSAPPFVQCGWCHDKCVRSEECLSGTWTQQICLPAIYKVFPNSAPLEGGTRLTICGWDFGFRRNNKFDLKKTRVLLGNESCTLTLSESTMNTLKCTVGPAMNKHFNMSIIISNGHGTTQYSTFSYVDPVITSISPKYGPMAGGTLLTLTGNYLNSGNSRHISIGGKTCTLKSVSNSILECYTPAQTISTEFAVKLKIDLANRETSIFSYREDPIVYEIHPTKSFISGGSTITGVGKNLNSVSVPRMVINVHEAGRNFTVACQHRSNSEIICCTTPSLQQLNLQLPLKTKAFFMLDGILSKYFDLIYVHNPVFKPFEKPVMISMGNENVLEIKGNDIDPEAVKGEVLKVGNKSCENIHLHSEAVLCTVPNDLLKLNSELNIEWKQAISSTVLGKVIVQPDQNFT
Method: (§1) 96-well Fluoronunc plates were coated with 50 ul of 0.5 ug/ml c-Met/Fc Chimera (R&D Systems, Minneapolis Minn., catalog # 358-MT-100) in phosphate buffered saline (PBS) and the plates were incubated overnight at room temperature. Wells were washed three times with washing buffer (PBS+0.1% Tween 20), blotting the plates on paper towels between each wash. Nonspecific binding in the wells was blocked by the addition of 250 ul of blocking buffer (3.0% milk (Carnation) in PBS) to each well and incubated at room temperature for two hours.
(§2) The c-Met antibodies were diluted in reagent buffer (PBS, 0.5% BSA, 0.05% Tween-20) and titrations were performed in 96 well polypropylene plates. Biotinylated HGF (0.4 ug/ml) (R&D Systems, biotinylated with Pierce #21335 as per manufacturer's instructions) was added to each well. 50 ul of the dilutions were transferred into the Fluoronunc plates containing human c-Met-Fc fusion protein (R&D Systems, #) and the plates were incubated for two hours at room temperature. The plates were washed three times with wash buffer and blotted onto paper towels. 50 ul of europium-labeled Streptavidin (Wallac Perkin Elmer) diluted 1:1000 in Delfia assay buffer (Wallac Perkin Elmer) was added per well and the plates were incubated for one hour at room temperature. The plates were washed seven times with Delfia wash buffer (Tris buffered saline (TBS) supplemented with 0.1% Tween-20) and blotted onto paper towels. 100 ul Delfia enhancer solution (Wallac Perkin Elmer) was added to each well and the plates incubated for 5 minutes on a plate shaker at room temperature. Plates were read on a fluorescence plate reader and analyzed using GraphPad Prism software (GraphPad Software, San Diego, Calif.).
(§3) C-Met antibodies 1A3.3.13 (#HB-11894, ATCC Hybridoma) and 5D5.11.6 (#HB-11895, ATCC Hybridoma) were used as positive controls. MOPC-21 (#M-7894, Sigma) was used as an IgG isotype control and HB-94 (#HB-94, ATCC Hybridoma) was converted into a Fab fragment and used as a Fab isotype control. NK4-Elastase is a kringle to kringle 4 fragment resulting from digesting intact HGF purified from S-114 cells with elastase (Date et al., FEBS Lett. 420:1-6 ([…]).

[3] = target: T1, c-Met/Fc Chimera (R&D Systems, catalog …); test: europium (DELFIA) ligand competition ELISA: biotinylated HGF binding to plate-coated c-Met/Fc Chimera, antibody titrated
Method: as §1, §2

[4] = target: T1, c-Met/Fc Chimera (R&D Systems, catalog …); test: competition ELISA: displacement of biotinylated HGF from plate-coated c-Met/Fc chimera; value stands in the Fab column, n = 2
Method: as §1
The c-Met antibodies were diluted in reagent buffer (PBS, 0.5% BSA, 0.05% Tween-20) and titrations were performed in 96 well polypropylene plates. Biotinylated HGF (0.4 ug/ml) (R&D Systems, biotinylated with Pierce #21335 as per manufacturer's instructions) was added to each well. 50 ul of the dilutions were transferred into the Fluoronunc plates containing human c-Met-Fc fusion protein (R&D Systems, #) and the plates were incubated for two hours at room temperature. The plates were washed three times with wash buffer and blotted onto paper towels. […] Plates were read on a fluorescence plate reader and analyzed using GraphPad Prism software (GraphPad Software, San Diego, Calif.). […]

[5] = target: T2, biotinylated c-Met-Fc (R&D Systems, #358-MT-100/CF, 5.1 biotin per c-Met molecule) (human, UniProt P08581 25-932, biotinylated, 5.1 biotin per c-Met molecule (Pierce #21335)); test: SPR (BIAcore), biotinylated c-Met-Fc captured on streptavidin chip, IgG as analyte, bivalent model
T2 construct: extracellular domain; Captured on a streptavidin (SA) chip for the BIAcore study of the IgGs; Fc part of the bought chimera not given
T2 sequence (P08581 25-932): as the sequence (P08581 25-932, change not shown) above
Method: The binding properties (on-rate, off-rate and affinity) of c-Met monoclonal antibodies (IgG or Fab versions) with human c-Met extracellular domain was determined using surface plasmon resonance, or BLAcore, technology. For the binding studies with IgG, a low density (<1 ng/mm2) of c-Met-Fc (R&D Systems, #358-MT-100/CF) containing 5.1 biotin per c-Met molecule (prepared with Pierce #21335 as per manufacturer's instructions) was captured onto a SA chip precoated with Streptavidin (BIAcore Inc.). A streptavidin flow cell without adsorbed c-Met-Fc was used as a control cell for non-specificbinding. The antibody sample to be analyzed was prepared in HEPES buffer (0.15M NaCl, 10 mM HEPES, 3.4 mM EDTA, 0.005% surfactant P-20, pH 7.4) to form a set of solutions varied in concentration from 0.78 nM to 100 nM. The HEPES buffer used as the running solution was set at a flow rate of 50 ul/min. Each sample solution was injected over the two flow cells for three minutes, followed by 5 minutes of dissociation. The flow cells were then regenerated with 4.5M MgCl₂ for one minute to remove the bound antibody for the next cycle of binding study. The net sensorgrams (subtraction of sensorgrams from the negative control flow cell as well as that from the buffer blank) obtained for each set of samples were processed simultaneously in a global fitting using a bivalent binding model of the BIAevaluation software program equipped with the system. The on-rate (Kₐ), off-rate (Kd) and binding affinity (KD) were determined from the fitting with KD equal to kd/kₐ.

[6] = target: T1, c-Met/Fc Chimera (R&D Systems, catalog …); test: SPR (BIAcore), c-Met-Fc captured on protein A CM5 chip, Fab as analyte, 1:1 Langmuir model
Method: For the binding study of Fab fragments derived from antibodies of the invention, a high density (>2 ng/mm²) of protein A was first immobilized covalently onto a CM5 sensorchip using EDC/NHS amine coupling chemistry [. The flow cell containing c-Met-Fc captured by the protein A was used as the positive control while a flow cell containing only protein A was used as the negative control. The Fab sample to be analyzed was as above for antibodies to form a set of solutions with concentration ranged from 3.9 nM to 500 nM. The HEPES buffer used as the running solution was set at a flow rate of 50 ul/min. For each cycle of binding study, low density (<1 ng/mm²) of c-Met-Fc was captured first onto the positive flow cell. Each sample solution was then injected over the two flow cells (one negative and one positive in series) for three minutes followed by 5 minutes of dissociation. The flow cells were then regenerated with 4.5M MgCl₂ for one minute to remove the bound c-Met-Fc/Fab complexes for the next cycle of binding. The net sensorgrams (subtraction of sensorgrams from the negative control flow cell as well as that from the buffer blank) obtained from the set of samples were fitted simultaneously in a global fitting using a Langmuir 1:1 binding model of the BIAevaluation program equipped with the system. The on-rate (Kₐ), off-rate (Kd) and binding affinity (KD) were determined from the fitting with KD equal to kd/kₐ.

[7] = target: T1, c-Met/Fc Chimera (R&D Systems, catalog …); test: competition ELISA: displacement of biotinylated HGF from plate-coated c-Met/Fc chimera, Fab, n = 2
Method: as §1, §2, §3

[8] = target: T1, c-Met/Fc Chimera (R&D Systems, catalog …); test: europium (DELFIA) ligand competition ELISA: biotinylated HGF binding to plate-coated c-Met/Fc Chimera, Fab titrated
Method: as §1
The c-Met antibodies were diluted in reagent buffer (PBS, 0.5% BSA, 0.05% Tween-20) and titrations were performed in 96 well polypropylene plates. Biotinylated HGF (0.4 ug/ml) (R&D Systems, biotinylated with Pierce #21335 as per manufacturer's instructions) was added to each well. 50 ul of the dilutions were transferred into the Fluoronunc plates containing human c-Met-Fc fusion protein (R&D Systems, #) and the plates were incubated for two hours at room temperature. The plates were washed three times with wash buffer and blotted onto paper towels. […] Plates were read on a fluorescence plate reader and analyzed using GraphPad Prism software (GraphPad Software, San Diego, Calif.).

| Binder | scatter assay on DU-145 cells, mean object area, agonist (alone), 100 nM IgG; the smaller the number, the more scattering [1] [mean object area] | scatter assay on DU-145 cells, mean object area, antagonist (w/30 pM HGF), 100 nM IgG; the smaller the number, the more scattering [1] [mean object area] | IC50 [2] [nM] | IC50 (read off the curve) [3] [nM] | Kd [5] [nM] | koff [5] [s⁻¹] | kon [5] [M⁻¹ s⁻¹] | further results |
| --- | --- | --- | --- | --- | --- | --- | --- | --- |
| B1 | 459 | 372 | 0.84 | ~0.8 | – | – | – | – |
| B2 | – | – | – | – | – | – | – | IC50 [4]: > 125 nM |
| B3 | 318 | 289 | 2.55 | ~3 | 552 | 0.00845 | 15300 | – |
| B4 | 285 | 293 | 0.64 | ~0.7 | 13 | 0.00112 | 86000 | – |
| B5 | – | – | 0.58 | ~0.7 | 8.4 | 0.000759 | 90600 | – |
| B6 | – | – | – | – | – | – | – | Kd [6]: 13.8 nM; koff [6]: 0.00528 s⁻¹; kon [6]: 383000 M⁻¹ s⁻¹; IC50 [7]: 24.6 nM; IC50 (read off the curve) [8]: ~3 nM |
| B7 | – | – | – | – | – | – | – | IC50 [4]: 900 nM and 551 nM |
